Reference: PMC10470402 (iScience, 2023)

T1: S. pombe Gemin2/HT-SMNp complex (S. pombe, UniProt P0CU08 1-235; Q09808 1-35)
T1 sequence 1: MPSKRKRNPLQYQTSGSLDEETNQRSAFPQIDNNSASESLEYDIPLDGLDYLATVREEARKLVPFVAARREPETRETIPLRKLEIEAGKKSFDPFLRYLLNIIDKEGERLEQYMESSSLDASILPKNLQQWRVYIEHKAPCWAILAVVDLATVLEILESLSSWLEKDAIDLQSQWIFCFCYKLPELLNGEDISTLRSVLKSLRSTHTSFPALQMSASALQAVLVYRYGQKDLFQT
T1 sequence 2: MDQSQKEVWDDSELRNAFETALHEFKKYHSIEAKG

T2: S. pombe Gemin6/Gemin7/Gemin8 complex, HT-tag removed (S. pombe, UniProt G2TRK8 1-93; G2TRR1 1-91; Q9USY8 1-166)
T2 sequence 1: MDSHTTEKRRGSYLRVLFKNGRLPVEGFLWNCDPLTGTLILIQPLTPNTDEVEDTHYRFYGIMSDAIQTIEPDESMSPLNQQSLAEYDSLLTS
T2 sequence 2: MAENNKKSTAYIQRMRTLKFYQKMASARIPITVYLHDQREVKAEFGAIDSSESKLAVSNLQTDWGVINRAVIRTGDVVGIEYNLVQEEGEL
T2 sequence 3: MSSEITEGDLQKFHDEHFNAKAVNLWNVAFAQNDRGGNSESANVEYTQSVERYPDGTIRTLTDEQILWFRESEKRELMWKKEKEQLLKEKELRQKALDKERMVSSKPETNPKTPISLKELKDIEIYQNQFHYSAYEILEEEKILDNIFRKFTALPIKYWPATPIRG

B1: S. pombe SmD1/SmD2 subcomplex, HT-tag removed (complex)
chain 1: not shown
chain 2: MADLVDKPRSELSEIELARLEEYEFSAGPLSVLQQAVKNHDQVLINCRNNKKLLARVKAFDRHSNMVLENVKEMWTEKKRTASGKKGKAINKDRFISKMFLRGDGVVLVVRIPSA
B2: S. pombe HT-ICln (residues 1-160) (domain or fragment)
chain: MITKIDSLPKDLIRKVENGEKLLPNQEIVYFEEKTVPYKIRSDEESFPLGKLITLLVTSQSFILFDEEQNSGWKIPYETITLHAKQSKDKPYVYVQLEGEAIRPLLDHILKFERSSGTLHEAPSTEDENEFTDDFLELTLYVTDVDSCYQALCTCQSLHP
B3: S. pombe SmD3 (1-83)/SmB (1-93) subcomplex, HT-tag removed (complex)
chain 1: MSLCIKLLHETQGHIVTMELENGSTYRGKLIEAEDNMNCQMRDISVTARDGRVSHLDQVYIRGSHIRFLIVPDMLRNAPMFKV
chain 2: MGTTKMVSLLNHSLNVTTKDGRTFVGQLLAFDGFMNLVLSDCQEYRHIKKQNVPSNSVYEEKRMLGLVILRGEFIVSLSVQGPPPMDPSMRGS

How the values were obtained:
[1] = target: B2; test: pull-down
[2] = target: T1, S. pombe Gemin2/HT-SMNp complex; test: pull-down
[3] = target: B2; test: pull-down; remark: listed apart in the source
[4] = target: T1, S. pombe Gemin2/HT-SMNp complex; test: pull-down; remark: listed apart in the source
[5] = target: B3; test: SEC
[6] = target: B1; test: SEC
[7] = target: S. pombe SmD1/HT-SmD2 subcomplex (S. pombe, UniProt O42661 1-117; O14036 1-115); test: SEC + other: ion-exchange chromatography
Sequence of S. pombe SmD1/HT-SmD2 subcomplex (O42661 whole entry, one chain of several): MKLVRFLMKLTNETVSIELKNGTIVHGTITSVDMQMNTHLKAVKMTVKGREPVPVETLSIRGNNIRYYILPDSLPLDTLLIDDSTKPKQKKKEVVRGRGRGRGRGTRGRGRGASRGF

[8] = target: T2, S. pombe Gemin6/Gemin7/Gemin8 complex, …; test: SEC
SEC = target: the molecule itself; test: SEC

Binder | percent bound (D1/D2 and F/E/G added together) [2] | percent bound [3] | percent bound [4] | other results
B1 | 59% | 100% | 19.8% | percent bound (D1/D2 and F/E/G added together) [1]: 95%
B2 |  |  |  | binding result [5]: binds; binding result [6]: binds; binding result [7]: binds
B3 |  | 88.9% |  | 
S. pombe SMN, full length, HT-tag removed (natural protein) MDQSQKEVWDDSELRNAFETALHEFKKYHSIEAKGGVSDPDSRLDGEKLISAARTEESISKLEEGEQMINQQTETTLEGDTHIQQFADNKGLSDEKPETRAAETHQEFMEVPPPIRGLTYDETYKKLIMSWYYAGYYTGLAEGLAKSEQRKD |  |  |  | binding result [8]: binds
S. pombe SmF/SmE/SmG subcomplex, HT-tag removed (complex) chain 1: not shown chain 2: MSGRVQKVMIPPINFIFKLLQQHTPVSIWLFEQTDIRLQGQIRGFDEFMNIVLDDAVQVDAKNNKRELGRILLKGDNITLIQAI chain 3: MSKAGAPDLKKYLDRQVFVQLNGSRKVYGVLRGYDIFLNIVLEDSIEEKVDGEKVKIGSVAIRGNSVIMIETLDKMT | 53.5% |  | 14.1% | stoichiometry N (SEC): 6
